Reference: the supplement of paper PMC10724198
± gives the standard deviation of the averaged measurements.

Test system: Saccharomyces cerevisiae
Test: protein stability index of tFT-peptide fusion (C-terminal peptide) (PSI (0-1 scale)); higher = more stable (slower turnover)
Conditions: temperature: 30 C
Protocol: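 MPS profiling in S. cerevisiae of the yeast C-terminome library: the last 12 aa of each annotated ORF are fused to the C-terminus of a sfGFP-mCherry timer, after a GGGS linker. Cells are FACS-sorted into 8 mCherry/sfGFP bins and deep-sequenced. PSI runs from 0 (unstable) to 1 (stable); wild type and das1Δ backgrounds, two technical replicates each.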

[1] = genetic background: das1 deletion

Sequence	protein stability index [1]	protein stability index (genetic background: wild type)
ACHMAKPLKLPT [YHR032C-A C-terminal 12 aa]	0.679 ± 0.017	0.673 ± 0.029
ACILMAISQFNS [KSH1 C-terminal 12 aa]	0.619 ± 0.013	0.6333 ± 0.0061
ADESKKEITTGR [MPC2 C-terminal 12 aa]	0.714 ± 0.022	0.653 ± 0.018
AEFFTKFDELVV [EHT1 C-terminal 12 aa]	0.6616 ± 0.0027	0.666 ± 0.045
AEKRDALLKEDA [RPL19A C-terminal 12 aa]	0.6845 ± 0.0059	0.699 ± 0.0074
AFIFGNYKDILT [RGA1 C-terminal 12 aa]	0.755 ± 0.01	0.7204 ± 0.0034
AHNFKVPETSKG [PAN2 C-terminal 12 aa]	0.696 ± 0.032	0.677 ± 0.022
AHQKEILHSVSN [YML6 C-terminal 12 aa]	0.695 ± 0.016	0.726 ± 0.034
AITLAWLAHALT [YHL037C C-terminal 12 aa]	0.4375 ± 0.0012	0.39 ± 0.011
AITSAQELLDSK [RBL2 C-terminal 12 aa]	0.687 ± 0.024	0.72 ± 0.0079
AKFFIPFSHSSP [YPL185W C-terminal 12 aa]	0.729 ± 0.01	0.705 ± 0.051
AKTKFCCCIPFK [YOR376W-A C-terminal 12 aa]	0.7168 ± 0.0059	0.721 ± 0.078
ALDAEKYLTSLE [TRR1 C-terminal 12 aa]	0.707 ± 0.0079	0.695 ± 0.031
ALDAERYLSAQE [TRR2 C-terminal 12 aa]	0.698 ± 0.025	0.672 ± 0.015
ALFKAAGGKIKK [YLF2 C-terminal 12 aa]	0.6703 ± 0.0023	0.66 ± 0.011
ALHLLTKFTHII [SBH2 C-terminal 12 aa]	0.733 ± 0.012	0.167 ± 0.043
ALKKAARQVKKE [IFA38 C-terminal 12 aa]	0.71 ± 0.0074	0.6713 ± 0.0036
ALNRSAIIKDDK [DDP1 C-terminal 12 aa]	0.703 ± 0.0071	0.708 ± 0.01
ALPLPDEDDADL [GSP1 C-terminal 12 aa]	0.673 ± 0.02	0.715 ± 0.011
ALSKVGIYTIAN [PAU10 C-terminal 12 aa]	0.702 ± 0.013	0.675 ± 0.042
ALWKEKKEKPRS [RPS23A C-terminal 12 aa]	0.709 ± 0.01	0.687 ± 0.03

Sequence	protein stability index [1]	protein stability index (genetic background: wild type)
ANDWKTYENMKK [SIP18 C-terminal 12 aa]	0.7042 ± 0.0029	0.706 ± 0.041
ANEMADELSRYL [IRC6 C-terminal 12 aa]	0.724 ± 0.019	0.7344 ± 0.0047
ANFNDFYDAFYN [RSC30 C-terminal 12 aa]	0.732 ± 0.019	0.707 ± 0.026
ANGRHPQPSITL [CDC33 C-terminal 12 aa]	0.71 ± 0.016	0.709 ± 0.0097
APEFLDWLDEEN [HEM2 C-terminal 12 aa]	0.738 ± 0.011	0.6793 ± 0.0033
APNSNSSSGSVS [YFL013W-A C-terminal 12 aa]	0.673 ± 0.026	0.66 ± 0.034
AQGKLIMKVEGF [AST2 C-terminal 12 aa]	0.698 ± 0.03	0.72 ± 0.024
AQLLLTLNEETS [CAF40 C-terminal 12 aa]	0.6844 ± 0.0028	0.695 ± 0.032
AQPSQSEKEKTK [LNP1 C-terminal 12 aa]	0.679 ± 0.015	0.678 ± 0.04
ARGCCEVTSKRF [YGL188C C-terminal 12 aa]	0.683 ± 0.011	0.676 ± 0.0099
ARGRRRSKGFKV [RPL18A C-terminal 12 aa]	0.722 ± 0.03	0.696 ± 0.016
ARLDKSLTFEDQ [RIM20 C-terminal 12 aa]	0.6983 ± 0.0055	0.699 ± 0.038
ASDEPSRKKNRR [SSN3 C-terminal 12 aa]	0.743 ± 0.044	0.704 ± 0.056
ASSIYIIFDYEN [BUB3 C-terminal 12 aa]	0.6561 ± 0.0041	0.637 ± 0.025
ATFSHPELTNIH [SDH6 C-terminal 12 aa]	0.716 ± 0.01	0.716 ± 0.024
ATMALRKLVSRE [MSA2 C-terminal 12 aa]	0.693 ± 0.025	0.705 ± 0.061
ATRVSSRLRNKK [EAF7 C-terminal 12 aa]	0.7311 ± 0.0026	0.701 ± 0.025
ATYLNKSDNQVQ [YLR446W C-terminal 12 aa]	0.675 ± 0.052	0.656 ± 0.024
AVERLKLLKDYL [BNA3 C-terminal 12 aa]	0.685 ± 0.013	0.73 ± 0.0074
AYFALREKKFLL [YIL012W C-terminal 12 aa]	0.694 ± 0.019	0.641 ± 0.018
AYIDTSIPNLLL [REG2 C-terminal 12 aa]	0.707 ± 0.022	0.7067 ± 0.0067

Sequence	protein stability index [1]	protein stability index (genetic background: wild type)
AYRTYDISLTEN [DRN1 C-terminal 12 aa]	0.694 ± 0.035	0.656 ± 0.012
CDEVVEHVKASA [PCM1 C-terminal 12 aa]	0.708 ± 0.0093	0.687 ± 0.017
CGGKRNLQRNNF [YLR149C-A C-terminal 12 aa]	0.703 ± 0.017	0.6759 ± 0.0037
CLGDSIVNLLLI [YGR259C C-terminal 12 aa]	0.677 ± 0.011	0.3352 ± 0.0027
CLREFMNGQRYI [DIA4 C-terminal 12 aa]	0.7021 ± 0.0027	0.68 ± 0.034
CLSIIGFLKTKV [YOR015W C-terminal 12 aa]	0.7002 ± 0.0043	0.622 ± 0.023
CMKAVILYSEQM [ATE1 C-terminal 12 aa]	0.675 ± 0.012	0.6847 ± 0.0021
CNVCLFPDMYAR [CTF19 C-terminal 12 aa]	0.71 ± 0.01	0.727 ± 0.039
CNYYYHPRITFA [RMT2 C-terminal 12 aa]	0.6909 ± 0.0037	0.708 ± 0.039
CPHHNPDNQQFF [BIK1 C-terminal 12 aa]	0.702 ± 0.025	0.702 ± 0.078
CTKHRFGYQNWI [ARP6 C-terminal 12 aa]	0.692 ± 0.0049	0.692 ± 0.012
CVKVQQFSVIVL [YDR193W C-terminal 12 aa]	0.544 ± 0.013	0.617 ± 0.011
DDFDMMEATQLS [MUD2 C-terminal 12 aa]	0.70816 ± 0.00051	0.696 ± 0.0094
DDNEKALTWEEL [ATG19 C-terminal 12 aa]	0.706 ± 0.013	0.6976 ± 0.0069
DEADSSMTEASV [SNF2 C-terminal 12 aa]	0.704 ± 0.033	0.634 ± 0.015
DEDVDFLKVQVF [HAP4 C-terminal 12 aa]	0.709 ± 0.041	0.747 ± 0.064
DEFQRLTNGIPY [STT4 C-terminal 12 aa]	0.695 ± 0.024	0.6923 ± 0.0061
DEKLHSHNASPN [YNL198C C-terminal 12 aa]	0.6788 ± 0.0032	0.697 ± 0.014
DFIRGVAVFMHI [YMR272W-A C-terminal 12 aa]	0.691 ± 0.02	0.66587 ± 0.00052
DHIPLLTEFKIL [NGL1 C-terminal 12 aa]	0.721 ± 0.036	0.188 ± 0.02
DIISFTSTLHGG [URM1 C-terminal 12 aa]	0.727 ± 0.015	0.705 ± 0.059

Sequence	protein stability index [1]	protein stability index (genetic background: wild type)
DISDKIRRMQSR [MGP12 C-terminal 12 aa]	0.692 ± 0.0073	0.777 ± 0.16
DKITAELILNKI [EMC2 C-terminal 12 aa]	0.6872 ± 0.0017	0.6632 ± 0.0027
DKKKKKSKCVIL [RHO5 C-terminal 12 aa]	0.753 ± 0.0091	0.74 ± 0.014
DKKLARAGNNAI [CUE3 C-terminal 12 aa]	0.695 ± 0.0092	0.769 ± 0.0094
DKPLYKRMFSTK [HXT6 C-terminal 12 aa]	0.694 ± 0.022	0.7134 ± 0.0047
DKYPFLLYEVVR [YHR022C-A C-terminal 12 aa]	0.5289 ± 0.0027	0.544 ± 0.027
DLLNSVVVQRWA [SHP1 C-terminal 12 aa]	0.697 ± 0.012	0.702 ± 0.034
DLMISCLMNQET [MTR3 C-terminal 12 aa]	0.712 ± 0.028	0.6732 ± 0.0053
DLTKKPKKITFD [DBP3 C-terminal 12 aa]	0.6923 ± 0.0048	0.638 ± 0.018
DNDIYNTISEVR [RAD9 C-terminal 12 aa]	0.697 ± 0.022	0.727 ± 0.024
DPTTNGSIIKNE [IXR1 C-terminal 12 aa]	0.6787 ± 0.0023	0.7014 ± 0.0049
DRLKRRNNDYGF [MSO1 C-terminal 12 aa]	0.695 ± 0.014	0.738 ± 0.054
DSLENKIDSMTK [INH1 C-terminal 12 aa]	0.715 ± 0.018	0.714 ± 0.055
DSTMKIWSPGYQ [STE4 C-terminal 12 aa]	0.7158 ± 0.00073	0.728 ± 0.011
DSYKLMHSHIHP [IZH1 C-terminal 12 aa]	0.691 ± 0.01	0.6721 ± 0.0056
DTSSTVEKKQKT [CCL1 C-terminal 12 aa]	0.686 ± 0.032	0.692 ± 0.038
DTVVRLIDNIVI [PAN6 C-terminal 12 aa]	0.6896 ± 0.0041	0.702 ± 0.07
DVERVIRNAGRS [HSL1 C-terminal 12 aa]	0.693 ± 0.0082	0.674 ± 0.0079
EALGKGGRGKRY [LSO1 C-terminal 12 aa]	0.671 ± 0.013	0.678 ± 0.019
